# Where two headings read alike, the source gives them in different places.
# Assays:
# [1] = Biodistribution in normal mice; assay type: in vivo; details: for tissue uptake at 1 h / tissue uptake at 4 h / tissue uptake at 24 h: male, mouse, iv, total radioactivity
# Experimental: Male albino mice in a weight range of18-24 g were used for normal mice treatments and malenude mice (6 to 8 weeks old) were used for in-vivo tumor treatments. The mice were housed at controlled room temperature (25 °C) in a 12 h light/12 h dark schedule. They were kept in standard cages with free access to food and water except during the experiments. The nude mice were grown and kept in isolated sterile condition. All animal experiments were carried out in compliance with our institutional ethical guidelines.
# Freshly labeled ^99mTc-HYNIC-Tyr^8-Met(O)^11-SP (purity>98%) was diluted to 3.3 nmol/mL with normal saline and a dose of 800 µCi/ 330 pmol in 100 µL was injected to each mouse via the tail vein. Also agroup of three animals (blocked group) were given150 µg of SP in 50 µL salineco-injected with the radiopeptide to determine the non-specific biodistribution of the radiopeptide by blocking the receptor-positive organs. After 1, 4, and 24 h post injection the mice in groups of three animals were sacrificed and organs of interest were excised. All organs and tissues were weighed, and the radioactivity was determined by gamma counter. Results were expressed as percentage of injected dose per gram (% ID/g) of tissue.
# [2] = tested on: U373MG cells; assay: Internalization and surface binding in U373MG cells; assay type: cell-based, human; details: for total cell uptake: 37 °C, 2.5 pmol peptide per well, % of total activity per well, triplicates; for receptor specific cell uptake: total minus nonspecific (10000 fold excess unlabeled SP)
# Experimental: All the main cell studies were performed on U373MG human Glioblastoma cell lines. Cells were cultured in DMEM was supplemented with L-glutamine, antibiotics (penicillin, streptomycine, gentamycine) and10% FBS. They were grown in culture until a sufficient number of cells were available. At proper times, cells were detached by trypsin-EDTA (0.25% and 0.02%) from the culture flask and diluted with fresh medium to start a new culture or the cell line tests.
# Internalization of the ^99mTclabeled HYNIC-Tyr^8-Met(O)^11-SP was studied as previously described method([32], [33]) with some modifications. In brief, newly detached U373MG cells were seeded in six-well plates 12 h before the experiment. Their culture medium was replaced by 1.2 mL of previously warmed fresh medium and cells were allowed to adjust to the medium for 1 h at 37 °C, 5% CO2. In order to determine nonspecific internalization, one line of wells per plate was incubated with 10000 fold excess of unlabeled SP (25 nmol peptide in 150 μL PBS per well) at 37°C/5% CO2 for 15 min to block NK1Rs. Then about 150kBq (2.5 pmol peptide) in 150 μL diluted solution of freshly radiolabeled peptide was added to each of the wells and were incubated (in triplicates) for 0.5, 1, 2 and 4 h at 37 °C/5% CO2, respectively. As the final volume of blocked wells was 1.5 mL, the content volume of unblocked wells was adjusted to 1.5 mL by adding 150 μL PBS per well. At each time point, radioactive media were aspirated and wells were washed twice with cold PBS (1x, pH 7.2) to remove free radio peptides. After that, cells were treated with 1 mLGly buffer (0.2M, pH adjusted to 2.8 with 1 M HCl) at room temperature for 5 min (twice) to remove cell-surface bound radio peptide. Finally, the cells were detached from the plates by three steps incubation with 1N NaOH at room temperature for 5 min to determine the internalized radio peptide. All consequent fractions were measured with a NaI γ-counter and results were expressed as percentage of total activity per well (free + cell-surface bound + internalized). Nonspecific accumulations were subtracted from totals to determine the specific accumulations.
# [3] = Stability in human serum; assay type: in vitro ADME; details: fresh human serum, 37 °C, up to 24 h; sampled 1, 4, 24 h; ethanol precipitation; RP-HPLC
# Experimental: The stability of radiolabeled peptide in aqueous solution was evaluated by incubation of the reaction mixture at room temperature (25 °C)up to 24 h.Stability in human serum at 37 °C was tested in parallel after adding 100 μL of reaction mixture to 1ml of fresh human serum. The incubation mixtures were sampled at 1, 4, and 24 h time points. Serum samples (100-200 μL) were treated with ethanol (200-400 μL) and centrifuged (4000 g, 5 min, 4 °C) to precipitate the serum proteins. 20-100 μL aliquots from the supernatant were separated to assess the degradation of ^99mTc labeled peptide by RP-HPLC (method I). 100 μL aliquots from the 25 °C incubated mixture were passed through a […] to eliminate possible ^99mTc colloids and then, 5-20 μL of filtrate were analyzed by RP-HPLC as well.
structure (smiles),measurement,setting,value
"CC(C)C[C@H](NC(=O)CNC(=O)[C@H](Cc1ccc(O)cc1)NC(=O)[C@H](Cc1ccccc1)NC(=O)[C@H](CCC(N)=O)NC(=O)[C@H](CCC(N)=O)NC(=O)[C@@H]1CCCN1C(=O)[C@H](CCCCN)NC(=O)[C@@H]1CCCN1C(=O)[C@H](CCCNC(=N)N)NC(=O)c1ccc(NN)nc1)C(=O)N[C@@H](CC[S+](C)[O-])C(N)=O (stereo partly drawn) [^99mTc-HYNIC-Tyr^8-Met(O)^11-SP, metal not drawn]",%ID/g Blood,"[1]; Blood, 1 h p.i., i.v., mean ± SEM, n=3",1.02±0.16 %ID/g
same,%ID/g Blood,"[1]; Blood, 4 h p.i., i.v., mean ± SEM, n=3",0.36±0.03 %ID/g
same,D% Blood,"[1]; Blood, decreased percent of %ID/g between 1 h and 4 h",65%
same,%ID/g Bone,"[1]; Bone, 1 h p.i., i.v., mean ± SEM, n=3",0.44±0.03 %ID/g
same,D% Bone,"[1]; Bone, decreased percent of %ID/g between 1 h and 4 h",55%
same,D% Heart,"[1]; Heart, decreased percent of %ID/g between 1 h and 4 h",68%
same,D% Kidneys,"[1]; Kidneys, decreased percent of %ID/g between 1 h and 4 h",35%
same,%ID/g L. intestine,"[1]; L. intestine, 1 h p.i., i.v., mean ± SEM, n=3",1.14±0.09 %ID/g
same,%ID/g L. intestine,"[1]; L. intestine, 4 h p.i., i.v., mean ± SEM, n=3",1.33±0.28 %ID/g
same,%ID/g L. intestine,"[1]; L. intestine, 24 h p.i., i.v., mean ± SEM, n=3",0.37±0.06 %ID/g
same,D% L. intestine,"[1]; L. intestine, decreased percent of %ID/g between 1 h and 4 h",-17%
same,%ID/g Liver,"[1]; Liver, 1 h p.i., i.v., mean ± SEM, n=3",0.58±0.04 %ID/g
same,%ID/g Liver,"[1]; Liver, 4 h p.i., i.v., mean ± SEM, n=3",0.38±0.05 %ID/g
same,%ID/g Liver,"[1]; Liver, 24 h p.i., i.v., mean ± SEM, n=3",0.16±0.02 %ID/g
same,D% Liver,"[1]; Liver, decreased percent of %ID/g between 1 h and 4 h",34%
same,%ID/g Lung,"[1]; Lung, 1 h p.i., i.v., mean ± SEM, n=3",0.94±0.19 %ID/g
same,%ID/g Lung,"[1]; Lung, 4 h p.i., i.v., mean ± SEM, n=3",0.33±0.02 %ID/g
same,%ID/g Lung,"[1]; Lung, 24 h p.i., i.v., mean ± SEM, n=3",0.17±0.04 %ID/g
same,D% Lung,"[1]; Lung, decreased percent of %ID/g between 1 h and 4 h",65%
same,%ID/g Muscle,"[1]; Muscle, 1 h p.i., i.v., mean ± SEM, n=3",0.32±0.07 %ID/g
same,D% Muscle,"[1]; Muscle, decreased percent of %ID/g between 1 h and 4 h",72%
same,%ID/g S. intestine,"[1]; S. intestine, 1 h p.i., i.v., mean ± SEM, n=3",2.13±0.17 %ID/g
same,%ID/g S. intestine,"[1]; S. intestine, 4 h p.i., i.v., mean ± SEM, n=3",0.89±0.21 %ID/g
same,%ID/g S. intestine,"[1]; S. intestine, 24 h p.i., i.v., mean ± SEM, n=3",0.24±0.04 %ID/g
same,D% S. intestine,"[1]; S. intestine, decreased percent of %ID/g between 1 h and 4 h",58%
same,%ID/g Salivary G.,"[1]; Salivary G., 1 h p.i., i.v., mean ± SEM, n=3",0.61±0.05 %ID/g
same,D% Salivary G.,"[1]; Salivary G., decreased percent of %ID/g between 1 h and 4 h",57%
same,D% Spleen,"[1]; Spleen, decreased percent of %ID/g between 1 h and 4 h",30%
same,D% Stomach,"[1]; Stomach, decreased percent of %ID/g between 1 h and 4 h",75%
same,tissue uptake at 1 h,"[1]; albino, 330 pmol per mouse, Stomach, 1 h p.i., i.v., mean ± SEM, n=3, read-out: %ID/g Stomach",1.57 ± 0.13 %ID/g
same,tissue uptake at 4 h,"[1]; albino, 330 pmol per mouse, Stomach, 4 h p.i., i.v., mean ± SEM, n=3, read-out: %ID/g Stomach",0.39 ± 0.06 %ID/g
same,tissue uptake at 24 h,"[1]; albino, 330 pmol per mouse, Stomach, 24 h p.i., i.v., mean ± SEM, n=3, read-out: %ID/g Stomach",0.15 ± 0.01 %ID/g
same,tissue uptake at 4 h,"[1]; albino, salivary gland, 330 pmol per mouse, Salivary G., 4 h p.i., i.v., mean ± SEM, n=3, read-out: %ID/g Salivary G.",0.26 ± 0.02 %ID/g
same,tissue uptake at 24 h,"[1]; albino, salivary gland, 330 pmol per mouse, Salivary G., 24 h p.i., i.v., mean ± SEM, n=3, read-out: %ID/g Salivary G.",0.2 ± 0.02 %ID/g
same,tissue uptake at 24 h,"[1]; 800 uCi (330 pmol) per mouse, Blood, 24 h p.i., i.v., mean ± SEM, n=3, read-out: %ID/g Blood",0.14 ± 0.02 %ID/g
same,tissue uptake at 4 h,"[1]; 800 uCi (330 pmol) per mouse, Bone, 4 h p.i., i.v., mean ± SEM, n=3, read-out: %ID/g Bone",0.2 ± 0.02 %ID/g
same,tissue uptake at 24 h,"[1]; 800 uCi (330 pmol) per mouse, Bone, 24 h p.i., i.v., mean ± SEM, n=3, read-out: %ID/g Bone",0.07 ± 0.03 %ID/g
same,tissue uptake at 1 h,"[1]; 800 uCi (330 pmol) per mouse, Heart, 1 h p.i., i.v., mean ± SEM, n=3, read-out: %ID/g Heart",0.55 ± 0.14 %ID/g
same,tissue uptake at 4 h,"[1]; 800 uCi (330 pmol) per mouse, Heart, 4 h p.i., i.v., mean ± SEM, n=3, read-out: %ID/g Heart",0.17 ± 0.01 %ID/g
same,tissue uptake at 24 h,"[1]; 800 uCi (330 pmol) per mouse, Heart, 24 h p.i., i.v., mean ± SEM, n=3, read-out: %ID/g Heart",0.06 ± 0.04 %ID/g
same,tissue uptake at 1 h,"[1]; 800 uCi (330 pmol) per mouse, Kidneys, 1 h p.i., i.v., mean ± SEM, n=3, read-out: %ID/g Kidneys",21.2 ± 0.7 %ID/g
same,tissue uptake at 4 h,"[1]; 800 uCi (330 pmol) per mouse, Kidneys, 4 h p.i., i.v., mean ± SEM, n=3, read-out: %ID/g Kidneys",13.8 ± 1.96 %ID/g
same,tissue uptake at 24 h,"[1]; 800 uCi (330 pmol) per mouse, Kidneys, 24 h p.i., i.v., mean ± SEM, n=3, read-out: %ID/g Kidneys",5.47 ± 0.56 %ID/g
same,tissue uptake at 4 h,"[1]; 800 uCi (330 pmol) per mouse, Muscle, 4 h p.i., i.v., mean ± SEM, n=3, read-out: %ID/g Muscle",0.09 ± 0.03 %ID/g
same,tissue uptake at 24 h,"[1]; 800 uCi (330 pmol) per mouse, Muscle, 24 h p.i., i.v., mean ± SEM, n=3, read-out: %ID/g Muscle",0.04 ± 0.02 %ID/g
same,tissue uptake at 1 h,"[1]; 800 uCi (330 pmol) per mouse, Spleen, 1 h p.i., i.v., mean ± SEM, n=3, read-out: %ID/g Spleen",0.4 ± 0.09 %ID/g
same,tissue uptake at 4 h,"[1]; 800 uCi (330 pmol) per mouse, Spleen, 4 h p.i., i.v., mean ± SEM, n=3, read-out: %ID/g Spleen",0.28 ± 0.06 %ID/g
same,tissue uptake at 24 h,"[1]; 800 uCi (330 pmol) per mouse, Spleen, 24 h p.i., i.v., mean ± SEM, n=3, read-out: %ID/g Spleen",0.13 ± 0.08 %ID/g
same,total cell uptake,[2]; 0.5 h,2.86 ± 0.10%
same,receptor specific cell uptake,[2]; 0.5 h,1.71%
same,total cell uptake,[2]; 4 h,4.91 ± 0.22%
same,receptor specific cell uptake,[2]; 4 h,2.98%
same,ratio of specific uptake to total uptake,[2]; over 0.5-4 h,60.21 ± 1.19%
same,stability in human serum,[3],good stability
